This note sets out measurements from patent US20190263876A1 (published 2019).

The target of assay [1] is T1, Activin A (UniProt P08476).
T1 sequence (looked up): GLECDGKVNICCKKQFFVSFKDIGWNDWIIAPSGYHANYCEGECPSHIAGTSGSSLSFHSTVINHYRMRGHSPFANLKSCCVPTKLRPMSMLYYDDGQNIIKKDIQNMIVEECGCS
Briefly: cell-based or functional assay.

The target in assay [2] is T2, GDF11 (UniProt O95390 299-407).
T2 construct: also called Growth and Differentiation Factor-11; BMP11
T2 sequence (looked up): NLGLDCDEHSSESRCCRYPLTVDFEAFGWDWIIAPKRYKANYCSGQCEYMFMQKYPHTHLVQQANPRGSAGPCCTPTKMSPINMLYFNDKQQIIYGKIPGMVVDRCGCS
In words: cell-based or functional assay.

Assay [3] has as its target T1, Activin A. Briefly: cell-based or functional assay. The source holds these as a separate data set.
The target of assay [4] is T2, GDF11. Briefly: cell-based or functional assay. This is another data set of the same source.
For assay [5], the target named is T2, GDF11. In words: BiaCore; ligand coupled to the device, receptor flowed. In general terms: SPR reads the build-up and loss of mass on a sensor chip optically.

As a reminder, the Kd is the constant that tells how readily two partners part at equilibrium.

Read-outs that look alike come from different tables or passages of the source.

B1: ActRIIB(22-131)-hFc (Fc fusion, not shown: a dimerising Fc or GST)
chain: GEAETRECIYYNANWELERTNQSGLERCEGEQDKRLHCYASWRNSSGTIELVKKGCWLDDFNCYDRQECVATEENPQVYFCCCEGNFCNERFTHLPEAGGPEVTYEPPPT
Take B1: the IC50 (ng/mL), Activin, reporter assay, conditioned media with Activin A [1] was 100 ng/mL. Besides, the IC50 (ng/mL), GDF-11, reporter assay, conditioned media in the assay with GDF11 [2] turned out to be 71 ng/mL.

B2: ActRIIB(20-132)-hFc (Fc fusion, not shown: a dimerising Fc or GST)
chain: GRGEAETRECIYYNANWELERTNQSGLERCEGEQDKRLHCYASWRNSSGTIELVKKGCWLDDFNCYDRQECVATEENPQVYFCCCEGNFCNERFTHLPEAGGPEVTYEPPPTA
For the molecule B2, the IC50 (ng/mL), Activin, reporter assay, conditioned media with Activin A [3] came out at 32 ng/mL. The IC50 (ng/mL), GDF-11, reporter assay, conditioned media in the assay with GDF11 [4] worked out at 87 ng/mL.

B3: ActRIIB(20-128)-hFc (Fc fusion, not shown: a dimerising Fc or GST)
chain: GRGEAETRECIYYNANWELERTNQSGLERCEGEQDKRLHCYASWRNSSGTIELVKKGCWLDDFNCYDRQECVATEENPQVYFCCCEGNFCNERFTHLPEAGGPEVTYEP
In the assay with Activin A [3], B3 gave an IC50 (ng/mL), Activin, reporter assay, conditioned media of 158 ng/mL. Besides, the IC50 (ng/mL), GDF-11, reporter assay, conditioned media with GDF11 [4] is 130 ng/mL.

B4: ActRIIB(24-131)-hFc (Fc fusion, not shown: a dimerising Fc or GST)
chain: AETRECIYYNANWELERTNQSGLERCEGEQDKRLHCYASWRNSSGTIELVKKGCWLDDFNCYDRQECVATEENPQVYFCCCEGNFCNERFTHLPEAGGPEVTYEPPPT
In the assay with Activin A [1], B4 had an IC50 (ng/mL), Activin, reporter assay, conditioned media of 105 ng/mL. In addition, the IC50 (ng/mL), GDF-11, reporter assay, conditioned media with GDF11 [2] turned out to be 69 ng/mL.

B5: ActRIIB-Fc A64 20-134 (Fc fusion, not shown: a dimerising Fc or GST)
chain: GRGEAETRECIYYNANWELERTNQSGLERCEGEQDKRLHCYASWANSSGTIELVKKGCWLDDFNCYDRQECVATEENPQVYFCCCEGNFCNERFTHLPEAGGPEVTYEPPPTAPT
In the case of B5, the Activin Inhibition Activity, cell-based assay (KI) in the assay with Activin A [3] was determined as 1000 nM. In the assay with GDF11 [4], the GDF11 Inhibition Activity, cell-based assay (KI) is 1000 nM.

B6: ActRIIB(21-131)-hFc (Fc fusion, not shown: a dimerising Fc or GST)
chain: RGEAETRECIYYNANWELERTNQSGLERCEGEQDKRLHCYASWRNSSGTIELVKKGCWLDDFNCYDRQECVATEENPQVYFCCCEGNFCNERFTHLPEAGGPEVTYEPPPT
Turning to B6, the IC50 (ng/mL), Activin, reporter assay, conditioned media in the assay with Activin A [1] came to 325 ng/mL. In addition, the IC50 (ng/mL), GDF-11, reporter assay, conditioned media in the assay with GDF11 [2] is 121 ng/mL.

B7: ActRIIB(20-131)-hFc (Fc fusion, not shown: a dimerising Fc or GST)
chain: GRGEAETRECIYYNANWELERTNQSGLERCEGEQDKRLHCYASWRNSSGTIELVKKGCWLDDFNCYDRQECVATEENPQVYFCCCEGNFCNERFTHLPEAGGPEVTYEPPPT
B7: the values for the IC50 (ng/mL), Activin, reporter assay, conditioned media with Activin A [3] and with Activin A [1] were 44 ng/mL and 201 ng/mL, respectively. In addition, the IC50 (ng/mL), GDF-11, reporter assay, conditioned media turned out to be 120 ng/mL with GDF11 [4] and 183 ng/mL with GDF11 [2].

B8: Soluble ActRIIB-Fc +15tail (Fc fusion, not shown: a dimerising Fc or GST)
chain: SGRGEAETRECIYYNANWELERTNQSGLERCEGEQDKRLHCYASWANSSGTIELVKKGCWLDDFNCYDRQECVATEENPQVYFCCCEGNFCNERFTHLPEAGGPEVTYEPPPTAPT
Regarding B8, in the assay with GDF11 [5], the Kd is 19 nM.

B9: ActRIIB(23-131)-hFc (Fc fusion, not shown: a dimerising Fc or GST)
chain: EAETRECIYYNANWELERTNQSGLERCEGEQDKRLHCYASWRNSSGTIELVKKGCWLDDFNCYDRQECVATEENPQVYFCCCEGNFCNERFTHLPEAGGPEVTYEPPPT
As to B9, the IC50 (ng/mL), Activin, reporter assay, conditioned media with Activin A [1] worked out at 43 ng/mL. Further, the IC50 (ng/mL), GDF-11, reporter assay, conditioned media with GDF11 [2] amounted to 60 ng/mL.
